The results in this text go back to patent US7547662 (KIMBERLY CLARK WORLDWIDE, dated 2009).

Numbering of substitutions follows the chain as printed.

Test [1] concerns the target T1, Bovine trypsin (Sigma Chemical Co.) (bovine, UniProt P00760 24-246).
T1 construct: Unlabelled in ITC; Oregon Green labelled in the library screening assay; also called bovine pancreatic trypsin
As to the kind of experiment: ITC, binding agent injected into bovine trypsin, 293 K. As for the experimental part: (§1) Isothermal titration calorimetry (ITC) was performed with a VP-ITC instrument from MicroCal, Inc. Titrations were carried out by injecting 5 µL of a binding agent (at concentration ranges from 0.5 mM to 1.0 mM) into the 1.4 mL stirred reaction cell. Bovine trypsin (Sigma Chemical Co.) ranged in concentration from 10 to 30 μM in the cell. Both the inhibitor and the enzyme were in 20 mM sodium cacodylate (pH 6.9), 40 mM NaCl. Titrations were conducted at 20° C. Typical experimental conditions for the titrations were a 10 second injection period followed by a 240 second delay between injections for a total of 40 injections. Blank titrations of binding agent into buffer were performed in order to correct for heats of dilution and mixing.
(§2) The ability of three binding agents (SEQ ID NO:4, SEQ ID NO:33 and 35) was tested to ascertain whether they could effectively bind bovine trypsin. Binding was measured by isothermal titration calorimetry (ITC).
Figure 9: FIG. 9 is a graph illustrating the binding between the computer-generated loop i variant and bovine pancreatic trypsin as analyzed by ITC analysis. Binding reagents and trypsin were dialyzed into 20 mM sodium cacodylate (pH 6.9), 40 mM NaCl. The binding reagent was at a concentration of 1 mM and trypsin was used in the calorimeter cell at a concentration of 20 μM. The temperature was maintained at 20° C. 40 injections of 5 μL each were employed with a 240 second re-equilibrium time between injections.
On the technique in general: In ITC the heat of successive injections is recorded.

Test [2] addresses T1, Bovine trypsin (Sigma Chemical Co.). The test is described as follows: ITC, binding agent injected into bovine trypsin in the cell, 20 C. As for the experimental part:
as §1, §2

T1 sequence (P00760 24-246): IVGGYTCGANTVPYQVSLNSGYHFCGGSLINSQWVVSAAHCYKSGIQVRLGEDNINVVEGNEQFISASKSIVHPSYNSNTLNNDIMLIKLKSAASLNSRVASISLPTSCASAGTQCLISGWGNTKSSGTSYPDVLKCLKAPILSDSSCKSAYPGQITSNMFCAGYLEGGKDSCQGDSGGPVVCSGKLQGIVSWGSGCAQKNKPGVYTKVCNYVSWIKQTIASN

B1: Loop i variant from computer search (parental binding agent with loop i ITAVCHK, SEQ ID NO:35) (designed binder)
chain: MDVQLQASGGGSVQAGGSLRLSCAASITAVCHKCAGWFRQAPGKEREGVAAINAGAAGTSYADSVKGRFTISQLAGAANVYLLMNSLEPEDTAIYYCAAGHAGAAGAATCGHGLSTAGAAGAPWGQGTQVTVSS
notes: The protein was then made, expressed and purified, and tested by ITC; also called Loop i Variant Computer; computer-generated loop i variant; not shown: C-terminal hexa-histidine tag added by the vector construct
Take B1: in test [1], the Ka was found to be 622000 M⁻¹, the Stoichiometry came out at 1.02 and the ΔS was -96.6 cal mol^-1 K^-1.

B2: Loop i variant from library screening (parental binding agent with loop i RYLRYPS, SEQ ID NO:33) (designed binder)
chain: B1 chain with I27R, T28Y, A29L, V30R, C31Y, H32P, K33S
notes: The clone came from a library in which loops i to v were randomised; also called Loop i variant Screening; Biological Screen; not shown: C-terminal hexa-histidine tag added by the vector construct
For B2, in test [1], the Ka was determined as 1.65e+06 M⁻¹, the Stoichiometry was 0.99 and the ΔS is -102 cal mol^-1 K^-1.

B3: Parental binding agent (generic binding agent, SEQ ID NO:4, Ala/Gly loops) (designed binder)
chain: B1 chain with I27A, T28G, V30A, C31G, H32A, K33A
notes: Camelid VHH-derived beta barrel scaffold, all five loops Ala/Gly; Expressed in E. coli as a monomeric C-terminal His-Tag fusion; not shown: C-terminal hexa-histidine tag added by the vector construct
Consider B3, for which, in test [2], the binding result was “no binding”.
